Data published in the DeepSol protein solubility set.

Assay: soluble on expression in E. coli; label from the status in PepcDB or PDB records

Sequence	soluble on expression in E. coli
MGSDKIHHHHHHMDTQAFKRSLHHSERYNRRGFGRANEVASNLEKAYQSSLIGSIRDNGYVLQHGRLQVKLAEAFGFCWGVERAVAMAYETRRHYPSERIWITNEIIHNPSVNEHLREMDVLFIHAEGGVKDFSCVNDGDVVILPAFGATVQEMELLHERGCHIIDTTCPWVSKVWHTVEKHKKQEFTSIIHGKVKHEETLATSSFAGTYLVVLDLDEAQLVADYILGQGDRAAFMKRFAKACSANFDPDQDLQRLGVANQTTMLKSETEEIGRLFERTMLRKYGPIELNKHFLSFNTICDATEERQQAMFSLVDEPLDLLVVIGGFNSSNTTHLQEIAISRGIRSFHIDTPERIGDNNSIQHKPLGEDLFIESNFLPAGSVSVGITSGASTPDRVVEHVIQKLIDLTSG	not soluble
MGSDKIHHHHHHMKITVLYSGNYGERVLNTILEKFAQNIVSIHEIPENLPEYIDDVSEYVPENLKESDLIISVGLFGDINLIVCDIAKKTNAKSIIIESHSPKQVTKGLKSEISDSLNEIKIVFPKPFCSLKPVGDTYIDEFAKYFGSPEIEIIGETIVKSVIVKRNAPCGSTKYVAENLTGYSLNEVEFESGNKLHNYPCLASMDVDNEIGDTILHLAGYKIKEAVKKSLKFSNKILTVTGDCKGFECGFKCYKICPVVKMGENAVEIEKTHVNINNLFCGCCMKCVDICPFNAIKVLNYKI	not soluble
MGSDKIHHHHHHMEDLYLECPGCDEVTLHTVLKEKESKKHLKITVKCQECGTVHDIEKNFKLKDIKIVISRYDESEQSVLQIATDEILKVEDVILAFDESVEITALETEDSRRVSSSAAQDLKMIWARSIDVPKKVGISINSRESTYSFNILVPQDYVFEEKKIYRAGRDFFRIKQIKTEKGNFSRELARKIKRIYGEPVKPLRDYTDLTDYML	not soluble
MADSIASIGNRYIDNNDTDMHFLRTWAVRRCQHTDWDICERIRLGELKEARDRAAQMEKTMRWWSSCTADWRNRWSAVRDERNRAREEAETLRLNYDLLLEEKRFLAEQLYHVDSESDEPKLEISQKPEIDGTKRNAVVQTIHSISCDPPSILVKSYSAAQIEAVLREPSVDEPPVETTKSDINEELKAENEFLKDQANELNKCREKIETDGKTIQDLRLRIQSMERELMAAKNSKRASSS	not soluble
MKHVPPTVLVWFRNDLRLHDHEPLHRALKSGLAITAVYCYDPRQFAQTHQGFAKTGPWRSNFLQQSVQNLAESLQKVGNKLLVTTGLPEQVIPQIAKQINAKTIYYHREVTQEELDVERNLVKQLTILGIEAKGYWGSTLCHPEDLPFSIQDLPDLFTKFRKDIEKKKISIRPCFFAPSQLLPSPNIKLELTAPPPEFFPQINFDHRSVLAFQGGETAGLARLQDYFWHGDRLKDYKETRNGMVGADYSSKFSPWLALGCLSPRFIYQEVKRYEQERVSNDSTHWLIFELLWRDFFRFVAQKYGNKLFNRGGLLNKNFPWQEDQVRFELWRSGQTGYPLVDANMRELNLTGFMSNRGRQNVASFLCKNLGIDWRWGAEWFESCLIDYDVCSNWGNWNYTAGIGNDARDFRYFNIPKQSQQYDPQGTYLRHWLPELKNLPGDKIHQPWLLSATEQKQWGVQLGVDYPRPCVNFHQSVEARRKIEQMGVIA	soluble
SEEDAGNGGFRKRMRASDEEGKGDSRDGISLDHTIENEEAETKLVASDEMELSIAQILDKIESFTQTVSNLLETGKTMLKELSNEFEERLIMIHKEHVEKWQDEIKELRLLDASNEETTSLLHNARYLIQNPSIEQ	soluble
MAHHHHHHMVFYSFVLVMKPRQRRFTSQALREIGVAVYSNGGLIRSITNEGIMRPYSRFRDADNTPLTYARYIILQLDMGEEEMGKVDKIIREHQDVLMALKLNNLERPVGIRSGNKELQAAYFPLDTFTRLEEEINWSPQTSADIYTQLEMNWKEFSRTRWSSFLRN	not soluble
MGSDKIHHHHHHMGEYLTLPMEVYSGILVTHEGVFHGDLIVEEMAFEESRVEKDDFVISPTFFNAHTHLGDAALREAPRLDLVSIVGPGGYKHRMLSQIDSKTLRQEVELEVRISRDAGTSHFLDFREGGKAGLEIVKGIDGVLPLARPTSVEEAEEVEAFGFAYSSARDHDLKLMEEVREIARRRKMLFAIHAGEKDCADVDAALALEPDFVVHMNSCPEKIREFVEAEIPIVSCIRSNAFFGLLNKKSYELLSEYEKWMLGTDNAMISTASMLDEMHFAAYLIGKEKAILRAATASYAVFGFRHGYVVFNRNCSFRRTSDPLLTLVRRAGVKDIERVLIL	not soluble
MLISKVIKKQFAQETIENVHIAKGTAMFQGVRLTVRCFVIDGVLIDTGAKSMENEFTSFFQQQDIDQVVITHFHEDHTGCAAFLQRKMGLPIYMNELMIHYCQQKADYPLYRKVFWGKRDPFTAKPIGATFSSRSATWDVIPTPGHSIDHVAFLNRETGQLFSGDLYCQEKTKVILREENIPAIITSLQHVLTYDFGDVFCAHAGYLPNGREALQRKLDYLLELQGTIIDLYEKGTPPKQIQALLFPKKYPIVFFSGGEWDSLHIIRSVIQEYETKQAG	not soluble
MSSNYIYRTAEKSDFDRILKFLAEHFYHEEPSIRASKIALEEWLPIFGEMTTSSLKLPISTVVTTEDGENIVAVLLNSMWSREEDEERMKHGNGKGDHDTSGYSEALQRFMTIVQKCHDEFWNLAPSDVNLVVYREISSVGKPWQRQGIATKMLSRNMSAARLHNVDGIVSATSSFANQTLLAKNGFQCLKEFPYSGIVSSNGDKLVETDDGSHGMRINFKRIEKSGNGPCEMEPPKSATFQNVATSVSS	soluble
MLQCYNCPNPTADCKTAVNCSSDFDACLITKAGLQVYNKCWKFEHCNFNDVTTRLRENELTYYCCKKDLCNFNEQLENC	soluble
RAGLSKLPDLKDAEAVQKFFLEEIQLGEELLAQGDYEKGVDHLTNAIAVCGQPQQLLQVLQQTLPPPVFQMLLTKLPTISQRIVSAQSLGEDDVE	soluble
MNVYHYETSGGKDLILEYIDGLPKNEKAEGLTILEKLEKEGLEALEVLNTRQLRGKLWEIKFYRSNRIMYVVADEDNIYLVHACKKQKGKAEKFELDTAIKRVKELEKELGKKFI	not soluble
MQHLTERMTQIAKLLNSSANNPDIDIPDFLTEIKDYSEFSVTDENGTYLHWDKFRRIHTEDTRMKWRAVKESRKKIQKPIDFPFEHQFWFCIPDSLQARLHLIDKSCGSSIGTSSLGGFGRSEQNRFLLKSLIMEEAITSAQLEGAATTRKVAKDMLKSQRKPKTKDEIMIVNNYHLMKKAVELKNTPLSVEMILDLHRIATSNAIENKAEPGQFRQDDEIFIADINGNSLYQPPPHGQVHTLMEEVCAFANNTYDGVENPFIHPVVQAIILHFLIGYIHPFGDGNGRTARALFYWFMLKNGYWLFEYISISRLLKNAPAQYAKSYLYAETDDLDLTYFIYYQCDIIKRAVADLEHYISDKQKHQQEFKAAIAQYTEKIGKLNQRQIGILQKAVEESGKIFTAQEIANQYGISLNTARSDLSKLGEYRFLVPFKSGNALEYVAPQDLLERLEKK	not soluble
MAIGKKVSKKTPLLLAADSHKNAAKMPCFLLQAHRIANTVIAGWHGQRKRGNGENFWQFRPYVEGESITRIDWRRSARDGHTYLREHEWEKTQTVWIWPDQSASMHYCSCFSQTSKDNYAIILALTLATLLARSGENIAIPTLMPPTMAPNVVERMALALVNRHTENPFPDFSTITRFSHVIIMSDFLDSPEKIIQNLTVLSAKQITVHLIEVADPAEEHFPYAGHTEFFDPETKEKRILGKAENSREHYCKLYQARRQELTNFCTRQGWTYHVSKTDRPLTEVILRLANKIGISPSHNRRSL	not soluble
MGSDKIHHHHHHMKVLIVGGSGGIGQAMVKQVQETYPDATVHATYRHHLPNDRQNNIQWHALDVTNEAEIKQLSEQLTELDWLINCVGILHTQDKGPEKSLQSLDIDFFQHNLTLNTLPSVMLAKHFCHALKQSDSARFAVISAKVGSITDNRLGGWYSYRASKAALNMFLKTLAIEWQRNMKHCVVLSLHPGTTDTPLSQPFQQSVPKGKLFTPEYVANCLLPIIANATPAQTGCFFAYDGTELPW	not soluble
MITQEMKDLINNQLAMVATVDAKGQPNIGPKRSMRLWDDKTFIYNENTDGQTRINIEDNGKIEIAFVDRERLLGYRFVGTAEIQTEGAYYEAAKKWAQGRMGVPKAVGIIHVERIFNLQSGANAGKEINSESN	not soluble
MEPEDTQLKEDIKTTVNYIKQHGVEFENKLLEDERFSFIKKDDPLHEYYTKLMNEPTDTVSGEDNDRKSEREIARPPDFLFSQYDTGISRRDMEVIKLTARYYAKDKSIVEQMISKDGEARLNFMNSSHPLHKTFTDFVAQYKRVYSFTGQEIKKSKRTILDNCFERTQYWEFEKDKDREHDKLVELCKIQFAAIPWDKFTQVAKFSIPEDTEIFEGSLDLEQMRLRRVQTGIKLFDSIKPTNEEEKIVSDQGKQKGGDSKGKKRKIRAVGETRLKKSKK	soluble
MGSDKIHHHHHHMTAELLRLLENVLRVGVVTEIDVDEWRVRVSAGGLHTDWLRWDALRAGSFSVWIPPSVGEQVLLGCIGGNPETAVIIGSIYSAANPAPGSSSSELVIKAPDGATVRYDAAAGALEASGMKTARIVASVGVTLETPVVECTEHLVAKTFSFTEGGTMKGDVNHTGGAFKSNGVQADEHSHGNVLNGPGWSDGTR	not soluble
MQAYSNPGYSSFPSPTGLEPSCKSCGAHFANTARKQTCLDCKKNFCMTCSSQVGNGPRLCLLCQRFRATAFQREELMKMKVKDLRDYLSLHDISTEMCREKEELVLLVLGQQPVISQEDR	soluble
MSLFDFFKNKGSAATATDRLKLILAKERTLNLPYMEEMRKEIIAVIQKYTKSSDIHFKTLDSNQSVETIEVEIILPR	not soluble
MIHYKIAPSPLDHEWHILLKFTQDNDFPIEISLPNWVPGSYLIRDFSRHITSIHASCNGTSMPLEQIAKNRWHTAAVRGEWQIRYTVYAFDLSVRGSFLTTERGFFDGSCLFLKVEGTETLPHRLELTGIPPEWRIATTLPETGRLVFQTASYDELIDRPVEMGLIEFLDFEAAGIPHTIALNGIYPDFDRDRLVSDIKKICETELAMFSSPAPFEKYLFLLHVGDHIYGGLEHTDSTALLADRHSLPPYGMTDADDAYTTLLGLFSHEYFHAWNVKSIKPAAFAPYDLDKENYTEQLWAFEGITSYYDDLFLARSRTISPEFYLNLLAQGITRVQQTRGRLRQTLAESSFTAWNKFYKPDENSPNAIVSYYQKGALAALCLDLIIRNRSNGRHSLDTVMDKLYREWRDTHSGIPEKHWQIRCQEITGLDLTDFFQTALYSTEDLPLAECLATTGVKLTFLPLPRQHGGGYAEHIFPIPPTGDFGARFKQNADHIVLTHVFNGGSAESAALCPQDKIIALDGYACTDFAAQWARYHVRAKINIHFFRAGILRQTVLTVQATAADTAILHITDRNLLENWLFGLEHHHHHH	not soluble
MRRRRVLLLLLSTTTFLRVSTAQQDEPKASVVEVQTKLGTVRGTESDHGNKRVRSFLGVPFAEPPINEHRFKKPTPARPWNGTISANTLSPACFQGRDSYDPTFWGSEMWNANTPVSEDCLYVNIWAPADAYNLTVLVWLFGGGFWYGSPSLLLYDGKELATRGNVIVVNINYRVGPFGYLFLDHEDVPGNMGMLDQQLALYWIRDHIFSFGGNPARISLVGESAGAASIVAHLIAPASKGLFQNGILQSGSLDNKWSMDSPKRAKQKSTALADLVGCNQTKITDQTACLRNTPAQLLIDNIWNVGLNFLEFPFAIVSKDQNFFKHLDGFIALREGTYSTDVNLMFGINHDEGNFWNIYNLAKFFDKQSVKPGLDRDEFHECVDTAFAVQPELVRTAAKYVYSDPKCTDPKKKTDFYTEQVNQMVGDYFFTCDSIWFAHNYPKMAGNQSNVFVYYFDQPSSANPWPKWTGVMHGYEIEYVFGVPLHNTTAGYTKEEMDVSEKVIDFWTTFANTGVPSLRKRAVGTTQKIKWDRYDGTDHTTWMNIKTGSFRMIQEIKKVECDLWRNAKDMEYSAYKEELATTSSSTLTQYTIYLILLSAFQLVFNFF	not soluble
